Experimental findings from article PMC6186450 are described below.

In the assay the target is Human Plasma Fibronectin (human). In words: ITC. Background: ITC needs no label: the signal is the heat of the interaction.

For orientation: Kd means the free concentration of one partner at which half of the binding sites on the other are occupied at equilibrium, for simple one-to-one binding. Low values mean tighter binding, high ones weaker binding. The substance 10 kDa PEG-FUD (peptide) gave a Kd of 4.6 nM.

A word on the stoichiometry N: it is the number of molecules, sites or subunits per partner or assembly. Consider 20 kDa PEG-FUD (peptide), for which the Kd came to 10 nM and the stoichiometry N was 1.63.

40 kDa PEG-FUD (peptide) displayed a Kd of 14.7 nM and a dH of -32.5 kcal/mol.

In the case of “Functional Upstream Domain (FUD) peptide”, the Kd came to 6 nM.
